Source: patent publication US20210198328A1, “MODULATED CAS-INHIBITORS” (Universität Heidelberg, priority 2017, published 2021)

Columns and labels:
[1] = target: dCas9-3xRFP (Streptococcus pyogenes) (UniProt Q99ZW2); assay: cell-based or functional assay
dCas9-p300 = dCas9-p300 (UniProt Q99ZW2); assay: cell-based or functional assay

CASANOVA (Acr-LOV variant 4; delta N64/Q65/E66, LOV2 inserted, no GS-linkers)
telomere labeling in U2OS nuclei, dark: cells labeling negative [1]: 60% | telomere labeling in U2OS nuclei, dark: more than 15 dots in the nucleus [1]: < 5% | telomere labeling in U2OS nuclei, light: more than 15 dots in the nucleus [1]: 40% | telomere labeling in U2OS nuclei, light: nuclei labeling positive [1]: 80% | IL1RN transcript levels by quantitative RT-PCR, light against dark (dCas9-p300): < 10 fold
